Experimental data taken from doi:10.1101/2020.06.09.143594 (bioRxiv, 2020).

Target: the molecule itself
Experiment: cross-linking

B1: σ1 M332C, S370P, Q371E, S403C of the HeadΔSA mutant virus, on purified virions (natural protein, UniProt P04506 1-470, looked up)
chain: MDASLITEIRKIVLQLSVSSNGSQSKEIEEIKKQVQVNVDDIRAANIKLDGLGRQIADISNSISTIESRLGEMDNRLVGISSQVTQLSNSVSQNTQSISSLGDRINAVEPRVDSLDTVTSNLTGRTSTLEADVGSLRTELAALTTRVTTEVTRLDGLINSGQNSIGELSTRLSNVETSMVTTAGRGLQKNGNTLNVIVGNGMWFNSSNQLQLDLSGQSKGVGFVGTGMVVKIDTNYFAYNSNGEITLVSQINELPSRVSTLESAKIDSVLPPLTVREASGVRTLSFGYDTSDFTIINSVLSLRSRLTLPTYRYPLELDTANNRVQVADRFGCRTGTWTGQLQYQHPQLSWRANVTLNLMKVDDWLVLSFPEMTTNSIMADGKFVINFVSGLSSGWQTGDTEPCSTIDPLSTTFAAVQFLNNGQRIDAFRIMGVSEWTDGELEIKNYGGTYTGHTQVYWAPWTIMYPCNVR
B1: binds.
